# Assay results taken from patent US20230257472A1 (JIANGSU HENGRUI MEDICINE, published 2023).
# Positions count from the first letter of the chain named.
# T1: human CD70 on cells (CD70-positive 786-O cells, Raji cells, CHO-S cells expressing human full-length CD70, … (human, UniProt P32970 1-193))
# T1 sequence (looked up): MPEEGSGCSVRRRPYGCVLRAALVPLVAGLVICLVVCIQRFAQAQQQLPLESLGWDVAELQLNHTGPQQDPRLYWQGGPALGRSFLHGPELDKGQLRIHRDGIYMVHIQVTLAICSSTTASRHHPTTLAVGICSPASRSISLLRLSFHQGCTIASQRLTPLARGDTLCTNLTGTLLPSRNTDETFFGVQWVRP
# T2: His-tagged CD70 protein extracellular domain (His-TNC-CD70) (human)
# T2 construct: Expressed in 293 cells; also called human His-TNC-CD70 antigen; human CD70 antigen
# T2 chain: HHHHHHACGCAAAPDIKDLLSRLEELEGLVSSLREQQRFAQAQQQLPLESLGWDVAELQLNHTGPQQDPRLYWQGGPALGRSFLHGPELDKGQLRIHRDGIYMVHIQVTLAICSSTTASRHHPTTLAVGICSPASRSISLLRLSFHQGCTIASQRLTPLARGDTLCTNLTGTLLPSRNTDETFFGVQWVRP
# B1: 41D12 (positive control antibody, see WO2012123586) (antibody, human IgG1, lambda, V domains shown)
# VH: EVQLVESGGGLVQPGGSLRLSCAASGFTFSVYYMNWVRQAPGKGLEWVSDINNEGGTTYYADSVKGRFTISRDNSKNSLYLQMNSLRAEDTAVYYCARDAGYSNHVPIFDSWGQGTLVTVSS
# VL: QAVVTQEPSLTVSPGGTVTLTCGLKSGSVTSDNFPTWYQQTPGQAPRLLIYNTNTRHSGVPDRFSGSILGNKAALTITGAQADDEAEYFCALFISNPSVEFGGGTQLTVLG
# B2: 41D12 (afuc) (antibody, human IgG1, lambda, V domains shown)
# VH: B1 VH
# VL: B1 VL
# modifications: non-fucosylated (heavy chain not modified by fucosylation)
# notes: also called non-fucosylated antibody of 41D12
# B3: huB7010 (antibody, human IgG1, kappa, V domains shown)
# VH: EIQLVQSGSELKKPGASVKVSCKTSGYTFTNYGMNWVRQAPGQGLEWMGWINTYTGEPTYADEFKGRFVFSLETSVSTAYLQISSLKAEDTAVYYCARGDSFTTEILRNWYFDVWGQGTTVTVSS
# VL: DIQMTQSPSSLSASVGDRVTITCGASENIYGALNWYQQKPGKVPKLLIYGATNLADGVPSRFSGSGSGRDYTLTISSLQPEDVATYYCQNVLSTPWTFGGGTKVEIKR
# notes: Humanized IgG1
# B4: huB7004 (antibody, human IgG1, kappa, V domains shown)
# VH: B3 VH
# VL: B3 VL with R69T, Y71F
# notes: Humanized IgG1
# B5: huB7006 (antibody, human IgG1, kappa, V domains shown)
# VH: B3 VH with E46K, S84N
# VL: B3 VL with R69T, Y71F
# notes: Humanized IgG1
# B6: huB7008 (antibody, human IgG1, kappa, V domains shown)
# VH: B3 VH with I2V, T24A, E73D
# VL: B3 VL
# notes: Humanized IgG1
# B7: huB7012 (antibody, human IgG1, kappa, V domains shown)
# VH: B3 VH with E46K, S84N
# VL: B3 VL
# notes: Humanized IgG1
# B8: huB7014 (antibody, human IgG1, kappa, V domains shown)
# VH: B3 VH with I2V, T24A, E73D
# VL: B3 VL with V43S
# notes: Humanized IgG1
# B9: huB7016 (antibody, human IgG1, kappa, V domains shown)
# VH: B3 VH
# VL: B3 VL with V43S
# notes: Humanized IgG1
# B10: huB7018 (antibody, human IgG1, kappa, V domains shown)
# VH: B3 VH with E46K, S84N
# VL: B3 VL with V43S
# notes: Humanized IgG1
# B11: huB7020 (antibody, human IgG1, kappa, V domains shown)
# VH: B3 VH with I2V, T24A, E73D
# VL: B3 VL with Q38R, V43S, D70Q
# notes: Humanized IgG1
# B12: huB7022 (antibody, human IgG1, kappa, V domains shown)
# VH: B3 VH
# VL: B3 VL with Q38R, V43S, D70Q
# notes: Humanized IgG1
# B13: huB7024 (antibody, human IgG1, kappa, V domains shown)
# VH: B3 VH with E46K, S84N
# VL: B3 VL with Q38R, V43S, D70Q
# notes: Humanized IgG1
# B14: huF4027 (antibody, human IgG1, kappa, V domains shown)
# VH: EVQLVQSGAEVKKPGSSVKVSCKASGDTFPRYNMHWVRQAPGQGLEWMGAIFPGNGETSYNQNFKGRVTLTADKSTSTAYMELSSLRSEDTAVYYCARNSYYDYAWFTYWGQGTLVTVSS
# VL: DIVMTQSPDSLAVSLGERATINCRASKSVSSSGYSFMHWYQQKPGQPPKLLIYLASNLESGVPDRFSGSGSGTDFTLTISSLQAEDVAVYYCQHSREFPPTFGQGTKLEIKR
# notes: Humanized IgG1
# B15: huF4009 (antibody, human IgG1, kappa, V domains shown)
# VH: B14 VH with N55T
# VL: B14 VL with S56D
# notes: Humanized IgG1
# B16: huF4025 (antibody, human IgG1, kappa, V domains shown)
# VH: B14 VH with D27G, P30S, L70I
# VL: B14 VL
# notes: Humanized IgG1
# B17: huF4026 (antibody, human IgG1, kappa, V domains shown)
# VH: B14 VH with L70I
# VL: B14 VL
# notes: Humanized IgG1
# B18: huF4028 (antibody, human IgG1, kappa, V domains shown)
# VH: B14 VH with V37L, R38K
# VL: B14 VL
# notes: Humanized IgG1
# B19: huB1026 (antibody, human IgG1, kappa, V domains shown)
# VH: EVQMVQSGAEVKKPGASVKVSCKASGYTFTTYNIHWVRQAPGQGLEWMGDIYPGNGDASYNQKFRDRVTMTRDTSTSTVYMELSSLRSEDTAVYYCATFSRFDGWFAYWGQGTLVTVSS
# VL: B14 VL with K27R, S31T, F36Y, F98L, P100Y, Q104G, L108V
# notes: Humanized IgG1
# B20: huB1025 (antibody, human IgG1, kappa, V domains shown)
# VH: B19 VH with M4L, T98R
# VL: B14 VL with K27R, S31T, F36Y, F98L, P100Y, Q104G, L108V
# notes: Humanized IgG1
# B21: huB1037 (antibody, human IgG1, kappa, V domains shown)
# VH: B19 VH with M4L, T98R
# VL: B14 VL with T5S, K27R, S31T, F36Y, D74N, F98L, P100Y, Q104G, L108V
# notes: Humanized IgG1
# B22: huB1038 (antibody, human IgG1, kappa, V domains shown)
# VH: B19 VH
# VL: B14 VL with T5S, K27R, S31T, F36Y, D74N, F98L, P100Y, Q104G, L108V
# notes: Humanized IgG1
# B23: CHB1 (chimeric antibody of B1) (antibody, human IgG1, kappa, V domains shown)
# VH: QVQMQQSGAELVKPGASVMMSCKASGYTFTTYNIHWIKQTPGQGLEWIGDIYPGNGDASYNQKFRDRATLTADRSSSTAYLQLSSLTSEDSAIYYCATFSRFDGWFAYWGQGTLVTVSA
# VL: DIVMSQSPASLAVSLGQRATISCRASRSVSTSGYSYMHWYQQKPGQPPKLLIYLASNLESGVPARFSGSGSGTNFTLNIHPVEEEDAATYYCQHSRELPYTFGGGTKLEIKR
# notes: Murine variable regions on human IgG1 / human light chain constant regions
# B24: CHF4 (chimeric antibody of F4) (antibody, human IgG1, kappa, V domains shown)
# VH: QVQLKQSGAELVKPGASVKMSCKASGDTFPRYNMHWLKQTPGQGLEWIGAIFPGNGETSYNQNFKGKATLTADKSSSTAYMQLNSLTSEDSAVYYCARNSYYDYAWFTYWGQGTLVTVSA
# VL: DIVMTQSPASLDVSLGQRATISCRASKSVSSSGYSFMHWYQQKPGQPPKLLISLASNLESGVPARFSGSGSGTDFTLTIYPVEEEDAATYYCQHSREFPPTFGSGTKLEIKR
# notes: as for B23
# Target: T1, human CD70 on cells (CD70-positive …)
# Experiment: cell-based or functional assay
Binder,"IC50 (ng/mL), inhibition of IL-8 secretion mediated by CD70/CD27 binding (U266 cells + HT1080/CD27 cells)","Imax (%), maximum inhibition rate of IL-8 secretion from CD27 cells"
B1,23.3 ng/mL,70.9%
B2,24.2 ng/mL,71.1%

# Target: T1, human CD70 on cells (CD70-positive …)
# Experiment: flow cytometry on CD70-positive Raji cells, Alexa Fluor 488 goat anti-human (H+L) detection
# Method: (§1) 786-O cells (ATCC, CRL-1932) or Raji cells (ATCC, CCL-86) at 1×10⁶ cells/mL were blocked with 1% BSA PBS buffer, followed by the addition of diluted anti-CD70 antibody samples at different concentrations were added, and the mixture was incubated for 1 h. After the plate was washed twice, Alexa Fluor 488-goat anti-human (H+L) antibody (Invitrogen, CAT #A 11013) was added, and the mixture was incubated for 1 h. After the plate was washed twice, fluorescence signals were read using a flow cytometer.
row,Binder,EC50 (read off the curve)
1,B1,~0.01 µg/mL
2,B2,~0.04 µg/mL

# Target: T1, human CD70 on cells (CD70-positive …)
# Experiment: flow cytometry on CD70-positive 786-O cells, Alexa Fluor 488 goat anti-human (H+L) detection
# Method: as §1
row,Binder,EC50 (read off the curve)
1,B1,~0.03 µg/mL
2,B2,~0.03 µg/mL

# Target: T2, His-tagged CD70 protein extracellular …
# Experiment: SPR Biacore T200, antibody captured by anti-human Fc, His-TNC-CD70 in flow, 1:1 model
# Method: The affinity of the chimeric and humanized antibodies of the present disclosure for the human CD70 antigen was tested using a Biacore instrument. The procedures are as follows:
# The human Fc capture molecules were covalently coupled to a CM5 biosensor chip (CAT #BR-1005-30, GE) according to the method described in the instructions of the human Fc capture kit (CAT #BR-1008-39, GE) for affinity capture of the antibodies to be tested. Then, a human His-TNC-CD70 antigen (set forth in SEQ ID NO: 1) flowed through the surface of the chip, and the reaction signal was detected in real time using a Biacore T200 instrument to obtain association and dissociation curves. After the dissociation was completed for each cycle, the biochip was washed and regenerated with a regeneration solution configured in the human antibody capture kit (GE). Data were fitted using a 1:1 model.
Binder,Kd,koff,kon
B3,0.0396 nM,0.000172 s⁻¹,4.36e+06 M⁻¹ s⁻¹
B4,0.0282 nM,0.000157 s⁻¹,5.58e+06 M⁻¹ s⁻¹
B5,0.0246 nM,0.000158 s⁻¹,6.41e+06 M⁻¹ s⁻¹
B6,0.0347 nM,0.000169 s⁻¹,4.87e+06 M⁻¹ s⁻¹
B7,0.0257 nM,0.000154 s⁻¹,5.99e+06 M⁻¹ s⁻¹
B8,0.0371 nM,0.000182 s⁻¹,4.92e+06 M⁻¹ s⁻¹
B9,0.0418 nM,0.000185 s⁻¹,4.43e+06 M⁻¹ s⁻¹
B10,0.0464 nM,0.000191 s⁻¹,4.12e+06 M⁻¹ s⁻¹
B11,0.0276 nM,0.000159 s⁻¹,5.76e+06 M⁻¹ s⁻¹
B12,0.0442 nM,0.000195 s⁻¹,4.41e+06 M⁻¹ s⁻¹
B13,0.0464 nM,0.000205 s⁻¹,4.41e+06 M⁻¹ s⁻¹
B14,0.0335 nM,9.13e-05 s⁻¹,2.73e+06 M⁻¹ s⁻¹
B15,0.0455 nM,0.000114 s⁻¹,2.51e+06 M⁻¹ s⁻¹
B16,0.0403 nM,8.68e-05 s⁻¹,2.15e+06 M⁻¹ s⁻¹
B17,0.0392 nM,9.56e-05 s⁻¹,2.44e+06 M⁻¹ s⁻¹
B18,0.0412 nM,0.000106 s⁻¹,2.56e+06 M⁻¹ s⁻¹
B19,0.0503 nM,9.62e-05 s⁻¹,1.91e+06 M⁻¹ s⁻¹
B20,0.0462 nM,0.000154 s⁻¹,3.33e+06 M⁻¹ s⁻¹
B21,0.0407 nM,0.00016 s⁻¹,3.93e+06 M⁻¹ s⁻¹
B22,0.0561 nM,0.000101 s⁻¹,1.8e+06 M⁻¹ s⁻¹
B23,0.0334 nM,7.54e-05 s⁻¹,2.26e+06 M⁻¹ s⁻¹
B24,0.0375 nM,8.37e-05 s⁻¹,2.23e+06 M⁻¹ s⁻¹
